First the molecules themselves.
T1: human MICA-Fc (human, UniProt Q29983 24-307, limits assumed)
T1 construct: Bought from R&D Systems; also called recombinant human MICA-Fc; not shown: Fc part (detected with anti-human Fc)
T1 sequence (looked up): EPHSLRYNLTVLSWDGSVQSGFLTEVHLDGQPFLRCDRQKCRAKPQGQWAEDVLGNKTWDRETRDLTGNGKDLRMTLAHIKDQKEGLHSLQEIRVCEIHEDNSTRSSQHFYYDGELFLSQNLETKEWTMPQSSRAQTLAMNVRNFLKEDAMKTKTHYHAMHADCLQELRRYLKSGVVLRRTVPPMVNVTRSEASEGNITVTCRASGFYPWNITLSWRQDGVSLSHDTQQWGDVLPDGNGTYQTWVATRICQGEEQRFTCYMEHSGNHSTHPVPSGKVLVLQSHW

T2: human MICB-Fc (human, UniProt Q29980 23-298, limits assumed)
T2 construct: Bought from R&D Systems; also called recombinant human MICB-Fc; not shown: Fc part (detected with anti-human Fc)
T2 sequence (looked up): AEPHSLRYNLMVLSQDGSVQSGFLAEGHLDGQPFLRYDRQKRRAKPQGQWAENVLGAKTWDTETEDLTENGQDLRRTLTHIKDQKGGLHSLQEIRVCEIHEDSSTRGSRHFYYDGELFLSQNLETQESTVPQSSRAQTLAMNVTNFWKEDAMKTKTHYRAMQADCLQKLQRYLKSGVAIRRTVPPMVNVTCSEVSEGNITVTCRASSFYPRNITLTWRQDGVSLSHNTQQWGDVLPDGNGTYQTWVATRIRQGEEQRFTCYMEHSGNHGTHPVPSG

T3: human Fc-NKG2D (human, UniProt P26718 78-216)
T3 construct: range 78-216; Bought from R&D Systems: a recombinant fusion protein of human Fc and the extracellular domain (amino acids 78-216) of human NKG2D; also called human NKG2D (immobilized); not shown: human Fc
T3 sequence (looked up): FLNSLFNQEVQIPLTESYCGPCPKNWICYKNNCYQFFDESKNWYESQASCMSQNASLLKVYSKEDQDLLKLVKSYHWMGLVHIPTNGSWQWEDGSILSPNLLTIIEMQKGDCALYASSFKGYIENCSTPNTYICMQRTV

T4: human CD22-Fc (human, UniProt P20273 20-687)
T4 construct: Bought from R&D Systems; not shown: Fc part
T4 sequence (looked up): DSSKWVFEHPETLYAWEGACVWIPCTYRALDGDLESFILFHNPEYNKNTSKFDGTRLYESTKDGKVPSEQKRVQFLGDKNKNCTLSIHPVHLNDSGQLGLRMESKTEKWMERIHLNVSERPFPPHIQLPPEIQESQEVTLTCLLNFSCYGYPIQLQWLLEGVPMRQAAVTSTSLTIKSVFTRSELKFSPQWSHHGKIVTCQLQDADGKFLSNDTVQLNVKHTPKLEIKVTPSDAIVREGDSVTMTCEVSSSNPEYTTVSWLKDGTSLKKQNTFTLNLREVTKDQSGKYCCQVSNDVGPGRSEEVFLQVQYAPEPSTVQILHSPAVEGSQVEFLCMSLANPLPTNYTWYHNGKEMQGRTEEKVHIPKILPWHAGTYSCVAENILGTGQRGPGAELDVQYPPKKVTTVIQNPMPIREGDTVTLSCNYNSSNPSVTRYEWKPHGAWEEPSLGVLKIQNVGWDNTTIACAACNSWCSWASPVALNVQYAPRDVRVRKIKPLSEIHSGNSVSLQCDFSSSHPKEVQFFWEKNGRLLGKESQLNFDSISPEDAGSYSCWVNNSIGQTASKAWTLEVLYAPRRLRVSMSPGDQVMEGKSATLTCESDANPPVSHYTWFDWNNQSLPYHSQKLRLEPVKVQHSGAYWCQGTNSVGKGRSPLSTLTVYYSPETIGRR

T5: human CD23 (human, UniProt P06734 150-321, limits assumed)
T5 construct: Bought
T5 sequence (looked up): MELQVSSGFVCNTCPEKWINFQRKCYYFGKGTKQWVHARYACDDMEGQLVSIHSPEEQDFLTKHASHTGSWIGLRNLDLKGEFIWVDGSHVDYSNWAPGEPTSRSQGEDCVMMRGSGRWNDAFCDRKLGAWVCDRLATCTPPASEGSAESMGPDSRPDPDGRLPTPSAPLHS

T6: mouse Fc-NKG2D (mouse, UniProt O54709 94-232, limits assumed)
T6 construct: Bought from R&D Systems; also called mouse NKG2D; not shown: Fc part
T6 sequence (looked up): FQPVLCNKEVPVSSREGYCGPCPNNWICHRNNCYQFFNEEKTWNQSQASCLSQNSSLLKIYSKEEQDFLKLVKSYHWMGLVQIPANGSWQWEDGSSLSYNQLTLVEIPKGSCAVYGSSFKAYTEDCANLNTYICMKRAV

B1: human ULBP2-Fc (Fc fusion, UniProt Q9BZM5 26-217, looked up)
chain: GRADPHSLCYDITVIPKFRPGPRWCAVQGQVDEKTFLHYDCGNKTVTPVSPLGKKLNVTTAWKAQNPVLREVVDILTEQLRDIQLENYTPKEPLTLQARMSCEQKAEGHSSGSWQFSFDGQIFLLFDSEKRMWTTVHPGARKMKEKWENDKVVAMSFHYFSMGDCIGWLEDFLMGMDSTLEPSAGAPLAMSS
notes: Bought from R&D Systems; also called recombinant human ULBP2-Fc; not shown: Fc part (detected with anti-human Fc)
B2: human NKG2D, cell surface (receptor, UniProt P26718 1-216, looked up)
chain: MGWIRGRRSRHSWEMSEFHNYNLDLKKSDFSTRWQKQRCPVVKSKCRENASPFFFCCFIAVAMGIRFIIMVTIWSAVFLNSLFNQEVQIPLTESYCGPCPKNWICYKNNCYQFFDESKNWYESQASCMSQNASLLKVYSKEDQDLLKLVKSYHWMGLVHIPTNGSWQWEDGSILSPNLLTIIEMQKGDCALYASSFKGYIENCSTPNTYICMQRTV
notes: whole, on cells; also called cell surface human NKG2D
B3: KYK-2.0 Fab (Fab, V domains shown)
VH: QVQLVESGGGLVKPGGSLRLSCAASGFTFSSYGMHWVRQAPGKGLEWVAFIRYDGSNKYYADSVKGRFTISRDNSKNTKYLQMNSLRAEDTAVYYCAKDRGLGDGTYFDYWGQGTTVTVSS
VL: QSALTQPASVSGSPGQSITISCSGSSSNIGNNAVNWYQQLPGKAPKLLIYYDDLLPSGVSDRFSGSKSGTSAFLAISGLQSEDEADYYCAAWDDSLNGPVFGGGTKLTVL
notes: Human Fab (lambda) with human constant domains and a C-terminal (His)6 tag, expressed in E. coli from pC3C-His and purified by IMAC
B4: KYK-2.0 IgG1 (antibody, V domains shown)
VH: B3 VH
VL: B3 VL
notes: It was biotinylated for flow cytometry on PBMC; also called KYK-2.0 IgG1λ; PIGG-KYK-2.0
B5: KYK-1.0 Fab (Fab, V domains shown)
VH: EVQLVESGGGVVQPGGSLRLSCAASGFTFSSYGMHWVRQAPGKGLEWVAFIRYDGSNKYYADSVKGRFTISRDNSKNTKYLQMNSLRAEDTAVYYCAKDRFGYYLDYWGQGTLVTVSS
VL: QPVLTQPSSVSVAPGETARIPCGGDDIETKSVHWYQQKPGQAPVLVIYDDDDRPSGIPERFFGSNSGNTATLSISRVEAGDEADYYCQVWDDNNDEWVFGGGTQLTVL
notes: Human Fab with human constant domains (lambda light chain) and a C-terminal (His)6 tag, expressed in E. coli from pC3C-His and purified by IMAC
B6: KYK-1.0 IgG1 (antibody, V domains shown)
VH: B5 VH
VL: B5 VL
notes: Fully human IgG1 lambda; also called KYK-1.0 IgG1λ; PIGG-KYK-1.0

In experiment [1] the target is B2. In words: whole-cell ELISA on HEK 293F/human NKG2D, 100 ng ligand-Fc, detected with biotinylated goat anti-human Fc and streptavidin-HRP, absorbance at 405 nm [panel ULBP2]. (ELISA stands for enzyme-linked immunosorbent assay.)
The target in experiment [2] is T1, human MICA-Fc. Kind of experiment: whole-cell ELISA on HEK 293F/human NKG2D, 100 ng ligand-Fc, detected with biotinylated goat anti-human Fc and streptavidin-HRP, absorbance at 405 nm [panel MICA].
Experiment [3] has as its target T2, human MICB-Fc. In words: whole-cell ELISA on HEK 293F/human NKG2D, 100 ng ligand-Fc, detected with biotinylated goat anti-human Fc and streptavidin-HRP, absorbance at 405 nm [panel MICB].
The target in experiment [4] is T3, human Fc-NKG2D.
Experiment [5] has as its target T3, human Fc-NKG2D. In words: SPR (BIAcore 2000), human Fc-NKG2D immobilized on chip.
In experiment [6] the target is T3, human Fc-NKG2D. Kind of experiment: SPR (BIAcore 2000), human Fc-NKG2D immobilized on chip; koff/kon.
The target in experiment [7] is T3, human Fc-NKG2D. Kind of experiment: SPR (BIAcore 2000), human Fc-NKG2D immobilized on chip. The source holds these as a separate data set. A general note: Surface plasmon resonance follows binding to a sensor surface in real time, without labels.
In experiment [8] the target is T4, human CD22-Fc. Kind of experiment: ELISA, protein coated at 100 ng/well, Fab detected with goat anti-human Fab-HRP, absorbance at 405 nm.
For experiment [9], the target named is T5, human CD23. The experiment is described as above.
Experiment [10] concerns the target B1. Described as above.
Experiment [11] has as its target T6, mouse Fc-NKG2D. The description is as above.
In experiment [12] the target is T7, BSA (bovine, UniProt P02769).
T7 construct: coated on the ELISA plate; also called bovine serum albumin
Described as above.

In experiment [13] the target is T3, human Fc-NKG2D. The source holds these as a separate data set.
Experiment [14] concerns the target T3, human Fc-NKG2D. In words: SPR (BIAcore 2000), human Fc-NKG2D immobilized on chip; bivalent IgG.
The target of experiment [15] is T3, human Fc-NKG2D. In words: SPR (BIAcore 2000), human Fc-NKG2D immobilized on chip; bivalent binding (virtual affinity, avidity).

We go through six molecules from patent US20110150870A1 (UNITED STATES OF AMERICA AS REPRESENTED BY TH, published 2011).

Read-outs that look alike come from different tables or passages of the source.

T7 sequence (P02769 25-607 limits assumed): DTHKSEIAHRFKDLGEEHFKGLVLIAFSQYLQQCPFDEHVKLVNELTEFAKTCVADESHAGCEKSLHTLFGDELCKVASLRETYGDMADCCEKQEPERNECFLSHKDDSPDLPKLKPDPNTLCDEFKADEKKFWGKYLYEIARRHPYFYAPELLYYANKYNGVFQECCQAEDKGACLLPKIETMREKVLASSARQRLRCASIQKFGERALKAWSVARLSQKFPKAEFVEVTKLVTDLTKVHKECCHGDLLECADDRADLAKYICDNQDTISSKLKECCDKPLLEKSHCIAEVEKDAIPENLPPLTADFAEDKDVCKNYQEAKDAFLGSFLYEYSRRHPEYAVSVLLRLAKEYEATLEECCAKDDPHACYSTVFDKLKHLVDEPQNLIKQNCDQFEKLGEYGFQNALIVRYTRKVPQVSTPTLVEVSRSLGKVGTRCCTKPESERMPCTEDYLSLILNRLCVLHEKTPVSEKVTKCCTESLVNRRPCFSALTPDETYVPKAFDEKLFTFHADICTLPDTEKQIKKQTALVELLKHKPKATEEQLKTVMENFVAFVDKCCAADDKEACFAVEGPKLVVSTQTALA

B1: the binding result in experiment [1] is on record as “binds”.

Take B2: the binding result in experiment [2] and in experiment [3] was “binds” throughout.

For orientation: koff means a measure of how fast the partners let go of each other. A low value points to slow dissociation. By kon is commonly meant the rate constant with which the complex forms. B3: the figures for the Kd in experiment [4], in [6] and in experiment [13] were 1.9 to 3 nM, 5.8 nM and 1.9 to 3 nM, respectively. The koff stood at 0.0018 s⁻¹ in experiment [4], 0.0043 s⁻¹ in experiment [5] and 0.0012 s⁻¹ in [13]. Also, the kon in experiment [4] is 890000 M⁻¹ s⁻¹; in [5], 740000 M⁻¹ s⁻¹; in experiment [13] it was 450000 M⁻¹ s⁻¹. Moreover, in [7], the “fold improvement in affinity (Kd) over KYK-1.0 Fab” value was about 4.5 fold. In addition, in [7], the “fold slower dissociation compared to KYK-1.0 Fab” value is about 8.5 fold. Moreover, the binding result in experiment [8], in [9], in experiment [10], in experiment [11] and in experiment [12] was “no binding (tested: not shown)” throughout.

As to B4, in [14], the koff came out at 0.00012 s⁻¹ and the kon is 320000 M⁻¹ s⁻¹. This molecule also displayed a Kd in experiment [15] of 0.38 nM.

For B5, the koff in experiment [5] was 0.037 s⁻¹. For the same molecule, the kon in experiment [5] came to 1.4e+06 M⁻¹ s⁻¹. In experiment [6], this molecule returned a Kd of 27 nM. Also, the binding result in [8], in experiment [9], in [10], in experiment [11] and in experiment [12] was “no binding (tested: not shown)” each time.

In experiment [14], B6 yielded a koff of 0.00056 s⁻¹ and a kon of 310000 M⁻¹ s⁻¹. Also, in [15], the Kd came out at 1.8 nM.
